Measurements: patent US20200069775A1, “BRAIN OSTEOCALCIN RECEPTOR AND COGNITIVE DISORDERS” (The Trustees of Columbia University in the City of New York, priority 2017, published 2020)

Target: T1, Gpr158 (Mus musculus, UniProt Q8C419)
T1 sequence (Q8C419 25-1200): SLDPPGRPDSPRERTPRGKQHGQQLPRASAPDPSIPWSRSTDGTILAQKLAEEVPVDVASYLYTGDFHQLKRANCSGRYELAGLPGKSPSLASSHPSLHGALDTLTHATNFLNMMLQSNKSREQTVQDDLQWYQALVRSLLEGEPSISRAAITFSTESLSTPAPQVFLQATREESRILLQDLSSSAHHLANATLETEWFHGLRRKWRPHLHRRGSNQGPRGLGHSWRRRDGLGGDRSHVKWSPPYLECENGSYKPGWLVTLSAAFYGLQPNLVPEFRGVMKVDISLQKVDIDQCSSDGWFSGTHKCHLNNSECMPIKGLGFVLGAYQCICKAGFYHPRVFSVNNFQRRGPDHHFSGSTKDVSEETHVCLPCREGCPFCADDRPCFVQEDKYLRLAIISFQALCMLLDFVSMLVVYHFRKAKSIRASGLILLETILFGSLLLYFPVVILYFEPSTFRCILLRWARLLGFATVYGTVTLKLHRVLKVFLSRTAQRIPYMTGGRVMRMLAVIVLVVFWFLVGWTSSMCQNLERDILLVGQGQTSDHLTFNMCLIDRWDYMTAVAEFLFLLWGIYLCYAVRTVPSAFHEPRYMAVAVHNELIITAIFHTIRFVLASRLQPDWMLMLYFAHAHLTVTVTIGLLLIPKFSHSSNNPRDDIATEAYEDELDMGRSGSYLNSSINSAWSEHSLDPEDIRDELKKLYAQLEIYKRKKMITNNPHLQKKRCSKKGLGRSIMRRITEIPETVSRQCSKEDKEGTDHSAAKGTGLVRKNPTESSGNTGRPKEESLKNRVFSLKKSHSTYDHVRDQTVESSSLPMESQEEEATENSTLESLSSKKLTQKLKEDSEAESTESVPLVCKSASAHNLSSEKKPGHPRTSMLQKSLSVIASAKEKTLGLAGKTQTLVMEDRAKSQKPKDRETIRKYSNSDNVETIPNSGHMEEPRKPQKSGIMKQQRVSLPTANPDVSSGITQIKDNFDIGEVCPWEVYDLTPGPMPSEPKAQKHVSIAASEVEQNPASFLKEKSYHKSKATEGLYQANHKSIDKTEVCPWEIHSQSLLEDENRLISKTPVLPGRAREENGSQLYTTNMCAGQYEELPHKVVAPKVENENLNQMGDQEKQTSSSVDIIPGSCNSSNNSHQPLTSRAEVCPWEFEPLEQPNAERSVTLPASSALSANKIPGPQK
Assay: Bdnf expression (qPCR) in WT and Gpr158−/− hippocampal neurons
Type: cell-based
Parameters: visually identified pyramidal neurons in the CA3 area of the hippocampus; from tissue; host or cells: coronal hippocampal slices of 3-4 week old male WT and Gpr158-/- mice
Conditions: WT vs Gpr158−/− hippocampal neurons, 4 hours
Procedure: FIG. 15. Function analysis of Osteocalcin signaling through Gpr158. (Panel a) IP1 accumulation in WT and Gpr158−/− hippocampal neurons (DIV 15) treated with either vehicle or osteocalcin for 1 hour. Glutamate was used as a positive control. (Panel b) Expression (qPCR) of Th and Bdnf in the midbrain of 6 month-old Gpr158+/− and WT littermates. (Panel c) Expression (qPCR) of Bdnf in WT and Gpr158−/− hippocampal neurons (DIV 15) treated with either vehicle or osteocalcin for 4 hours. (Panel d) Osteocalcin's effect on spontaneous action potential (AP) frequency in CA3 pyramidal neurons in WT (4 of 4 cells) and Gpr158−/− mice. The bars above the recording traces indicate the application of osteocalcin. […] Number of entries and time spent (s) in the open arms were scored. […] Time spent in the lit compartment and open arms was measured. […] Total ambulation (cm) and time spent in the center of the arena (s) were measured. […] Preference index (time spent with novel object/total exploration time) was measured. […] Preference index (time spent with novel object/total exploration time) was measured. […] Percent freezing 24 hours after training was measured. […]
RNA was isolated from brain tissue using TRIZOL (Invitrogen). cDNA synthesis was performed following standard protocol, q-PCR analyses were done using specific quantitative PCR primers (sequences available upon request), and expressed relative to Gapdh levels. […]

Q: “osteocalcin: Recombinant osteocalcin bacterially produced, cleaved from the GST subunit; completely undercarboxylated at all three sites; full-length mouse osteocalcin (YLGASVPSPDPLEPTREQCELNPACDELSDQYGLKTAYKRIYGITI)” was tested. Which Bdnf expression did it give?
A: increased Bdnf expression in WT significantly more than in Gpr158−/− hippocampal neurons
